From the supplement of paper PMC9112550, “Optimization of the antimicrobial peptide Bac7 by deep mutational scanning” (BMC Biology, 2022)

System: Escherichia coli TOP10
Experiment: shrunken log2 fold change of peptide-encoding DNA abundance (4.5 h post-induction vs induction); higher = less antimicrobial activity (less host growth inhibition)
Conditions: time post-induction: 4.5 h; library: site-saturation at positions 5, 18, 19, 20
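Also: peptides expressed intracellularly from a pBAD plasmid library in pooled LB shake-flask culture, induced with 0.3% L-arabinose, DNA abundance read by NGS, three biological replicates, DESeq2 with apeglm shrinkage.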

Sequence | shrunken log2 fold change
RRIRTRPPRLPRPRPRPSSFPRP | -0.284
RRIRTRPPRLPRPRPRPSTCPRP | -0.175
RRIRTRPPRLPRPRPRPSTGPRP | -0.285
RRIRTRPPRLPRPRPRPSTLPRP | -0.853
RRIRTRPPRLPRPRPRPSTRPRP | -0.296
RRIRTRPPRLPRPRPRPSVIPRP | -0.268
RRIRTRPPRLPRPRPRPSVQPRP | -0.0749
RRIRTRPPRLPRPRPRPSYAPRP | -0.274
RRIRTRPPRLPRPRPRPSYFPRP | -0.85
RRIRTRPPRLPRPRPRPTANPRP | 0.0721
RRIRTRPPRLPRPRPRPTAWPRP | 0.48
RRIRTRPPRLPRPRPRPTDFPRP | -0.405
RRIRTRPPRLPRPRPRPTFHPRP | -0.174
RRIRTRPPRLPRPRPRPTFMPRP | -0.191
RRIRTRPPRLPRPRPRPTKPPRP | 0.0402
RRIRTRPPRLPRPRPRPTLGPRP | 0.0554
RRIRTRPPRLPRPRPRPTLLPRP | 0.0818
RRIRTRPPRLPRPRPRPTLVPRP | 0.0196
RRIRTRPPRLPRPRPRPTMDPRP | -0.436
RRIRTRPPRLPRPRPRPTPHPRP | 0.283
RRIRTRPPRLPRPRPRPTRCPRP | -0.104
RRIRTRPPRLPRPRPRPTRIPRP | -0.204
RRIRTRPPRLPRPRPRPTRLPRP | 0.126
RRIRTRPPRLPRPRPRPTRNPRP | -0.0423
RRIRTRPPRLPRPRPRPTTTPRP | 0.168

Sequence | shrunken log2 fold change
RRIRTRPPRLPRPRPRPTVEPRP | -0.152
RRIRTRPPRLPRPRPRPTYDPRP | -0.311
RRIRTRPPRLPRPRPRPTYFPRP | -0.313
RRIRTRPPRLPRPRPRPVAVPRP | 0.0298
RRIRTRPPRLPRPRPRPVCIPRP | -0.195
RRIRTRPPRLPRPRPRPVCSPRP | -0.247
RRIRTRPPRLPRPRPRPVDIPRP | -0.282
RRIRTRPPRLPRPRPRPVDPPRP | -0.175
RRIRTRPPRLPRPRPRPVFIPRP | -0.475
RRIRTRPPRLPRPRPRPVFNPRP | -0.65
RRIRTRPPRLPRPRPRPVFRPRP | -0.516
RRIRTRPPRLPRPRPRPVFYPRP | -0.25
RRIRTRPPRLPRPRPRPVGFPRP | -0.225
RRIRTRPPRLPRPRPRPVGPPRP | -0.006
RRIRTRPPRLPRPRPRPVIDPRP | -0.0797
RRIRTRPPRLPRPRPRPVISPRP | -0.21
RRIRTRPPRLPRPRPRPVIYPRP | 0.721
RRIRTRPPRLPRPRPRPVKNPRP | -0.284
RRIRTRPPRLPRPRPRPVLPPRP | 0.0511
RRIRTRPPRLPRPRPRPVMQPRP | -0.0482
RRIRTRPPRLPRPRPRPVNDPRP | 0.0249
RRIRTRPPRLPRPRPRPVNYPRP | 0.0177
RRIRTRPPRLPRPRPRPVPTPRP | 3.08
RRIRTRPPRLPRPRPRPVRVPRP | 0.229
RRIRTRPPRLPRPRPRPVSMPRP | -0.812

Sequence | shrunken log2 fold change
RRIRTRPPRLPRPRPRPVSTPRP | 0.137
RRIRTRPPRLPRPRPRPVTAPRP | -0.0612
RRIRTRPPRLPRPRPRPVYGPRP | -0.167
RRIRTRPPRLPRPRPRPWAHPRP | -0.0917
RRIRTRPPRLPRPRPRPWCVPRP | -0.212
RRIRTRPPRLPRPRPRPWDSPRP | -0.00804
RRIRTRPPRLPRPRPRPWFFPRP | -0.0908
RRIRTRPPRLPRPRPRPWGWPRP | -0.0131
RRIRTRPPRLPRPRPRPWHPPRP | -0.179
RRIRTRPPRLPRPRPRPWICPRP | 0.0207
RRIRTRPPRLPRPRPRPWKMPRP | -0.0793
RRIRTRPPRLPRPRPRPWLYPRP | -0.161
RRIRTRPPRLPRPRPRPWMTPRP | -0.0339
RRIRTRPPRLPRPRPRPWNHPRP | 0.0317
RRIRTRPPRLPRPRPRPWNKPRP | -0.594
RRIRTRPPRLPRPRPRPWRCPRP | -0.00386
RRIRTRPPRLPRPRPRPWRFPRP | -0.0156
RRIRTRPPRLPRPRPRPWRKPRP | -0.262
RRIRTRPPRLPRPRPRPWRVPRP | -0.00468
RRIRTRPPRLPRPRPRPWSRPRP | -0.0291
RRIRTRPPRLPRPRPRPWYDPRP | 0.0754
RRIRTRPPRLPRPRPRPWYIPRP | -0.146
RRIRTRPPRLPRPRPRPWYNPRP | -0.325
RRIRTRPPRLPRPRPRPYAHPRP | -0.239
RRIRTRPPRLPRPRPRPYCLPRP | -0.999
